T1: mouse NSP4 (mNSP4), form not stated in Example 6 (mouse, UniProt Q14B24 40-284, limits assumed)
T1 construct: also called recombinant mouse NSP4; purified mouse NSP4
T1 sequence (looked up): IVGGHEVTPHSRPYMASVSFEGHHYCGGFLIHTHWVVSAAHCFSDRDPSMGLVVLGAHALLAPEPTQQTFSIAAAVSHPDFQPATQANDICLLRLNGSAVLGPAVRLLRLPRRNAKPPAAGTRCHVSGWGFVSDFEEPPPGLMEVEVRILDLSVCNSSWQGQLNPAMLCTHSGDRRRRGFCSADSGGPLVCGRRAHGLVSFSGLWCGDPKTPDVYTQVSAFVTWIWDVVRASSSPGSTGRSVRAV

T2: human NSP4 (hNSP4), form not stated in Example 6 (human, UniProt Q6UWY2 34-283, limits assumed)
T2 sequence (looked up): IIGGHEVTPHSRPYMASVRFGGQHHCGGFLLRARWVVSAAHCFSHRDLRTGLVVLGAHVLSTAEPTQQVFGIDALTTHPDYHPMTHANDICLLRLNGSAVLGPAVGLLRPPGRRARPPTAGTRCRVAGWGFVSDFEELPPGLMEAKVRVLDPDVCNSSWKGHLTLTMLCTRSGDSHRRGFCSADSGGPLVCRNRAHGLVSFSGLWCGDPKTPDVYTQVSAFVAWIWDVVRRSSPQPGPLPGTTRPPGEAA

T3: mouse zymogen NSP4 (mZ-NSP4) (mouse), Q14B24
T3 chain: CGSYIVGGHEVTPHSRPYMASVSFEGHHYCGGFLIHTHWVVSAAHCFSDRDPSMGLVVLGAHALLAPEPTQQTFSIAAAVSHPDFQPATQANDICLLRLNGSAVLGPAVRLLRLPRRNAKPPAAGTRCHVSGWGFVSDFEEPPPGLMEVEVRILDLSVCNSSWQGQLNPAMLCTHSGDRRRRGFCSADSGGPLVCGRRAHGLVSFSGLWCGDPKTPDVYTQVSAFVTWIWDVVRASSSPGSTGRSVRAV

T4: mouse active NSP4 (mA-NSP4) (mouse, UniProt Q14B24 40-284)
T4 construct: mature; Made from mZ by enteropeptidase cleavage; also called mature form of mouse NSP4
T4 sequence (looked up): T1 sequence (looked up)

T5: mouse zymogen NSP4 (mZ-NSP4) (mouse, UniProt Q14B24 36-284)
T5 construct: Expressed in CHO cells; also called precursor form of mouse NSP4; not shown: N-terminal FLAG tag removable by enteropeptidase (cleavage after Asp-Asp-Asp-Asp-Lys)
T5 sequence (looked up): T3 chain

B1: affinity matured anti-NSP4 antibody clone 35.77 (Fab, V domains shown)
VH: EVQLVESGGGLVQPGGSLRLSCAASGFTFSGSGIHWVRQAPGKGLEWVAWISPTGGNTYYADSVKGRFTISADTSKNTAYLQMNSLRAEDTAVYYCAKRHLHNVAFDYWGQGTLVTVSS
VL: DIQMTQSPSSLSASVGDRVTITCRASQDVSTAVAWYQQKPGKAPKLLIYSASFLYSGVPSRFSGSGSGTDFTLTISSLQPEDFATYYCQQAYSAPPTFGQGTKVEIKR
B2: affinity matured anti-NSP4 antibody clone 35.14 (Fab, V domains shown)
VH: EVQLVESGGGLVQPGGSLRLSCAASGFTFSDNDISWVRQAPGKGLEWVGSISPDNGDTNYADSVKGRFTISADTSKNTAYLQMNSLRAEDTAVYYCARDDVPAVFTSAMDYWGQGTLVTVSS
VL: B1 VL with A91S, S93G, A94F, P96L
B3: affinity matured anti-NSP4 antibody clone 35.62 (Fab, V domains shown)
VH: B2 VH
VL: B1 VL with A91S, Y92A, S93G, A94F, P96L
B4: affinity matured anti-NSP4 antibody clone 35.50 (Fab, V domains shown)
VH: B2 VH
VL: B1 VL with A91S, S93D, A94F, P96L
B5: affinity matured anti-NSP4 antibody clone 51.51 (Fab, V domains shown)
VH: B1 VH with K98R, R99G, H100L, L101F
VL: B1 VL with A91S, S93T
B6: affinity matured anti-NSP4 antibody clone 51.82 (Fab, V domains shown)
VH: B1 VH with K98R, R99G, H100L, L101F
VL: B1 VL with A91T, S93N
B7: affinity matured anti-NSP4 antibody clone 51.50 (Fab, V domains shown)
VH: B1 VH with R99S, H100L, L101F
VL: B1 VL with Y92N, A94T
B8: anti-NSP4 antibody 3-5 (antibody, V domains shown)
VH: B2 VH
VL: B1 VL with A91S, S93T, A94T
notes: also called Ab 3-5; Ab35
B9: anti-NSP4 antibody 5-1 (antibody, V domains shown)
VH: B1 VH with R99S, H100L, L101F
VL: B1 VL with A91S, S93T, A94T
notes: also called Ab 5-1; Ab5-1
B10: anti-NSP4 antibody 5-4 (antibody, human IgG1, V domains shown)
VH: EVQLVESGGGLVQPGGSLRLSCAASGFTFTSYAISWVRQAPGKGLEWVAGISPSNGYTNYADSVKGRFTISADTSKNTAYLQMNSLRAEDTAVYYCARAGRWTHSDIDYWGQGTLVTVSS
VL: B1 VL with A91S, S93T, A94T
notes: also called Ab 5-4
B11: anti-NSP4 antibody 5-3 (antibody, human IgG1, V domains shown)
VH: EVQLVESGGGLVQPGGSLRLSCAASGFTFSGNDISWVRQAPGKGLEWVAGISPYGGSTYYADSVKGRFTISADTSKNTAYLQMNSLRAEDTAVYYCARRVSFYSRHAGMDYWGQGTLVTVSS
VL: B1 VL with A91S, S93T, A94T
B12: anti-NSP4 antibody 5-2 (antibody, human IgG1, V domains shown)
VH: EVQLVESGGGLVQPGGSLRLSCAASGFTFSNTYISWVRQAPGKGLEWVGFIYPANGATYYADSVKGRFTISADTSKNTAYLQMNSLRAEDTAVYYCARRYRLSFDYWGQGTLVTVSS
VL: B1 VL with A91S, S93T, A94T
notes: also called Ab 5-2
B13: anti-NSP4 antibody 3-2 (antibody, V domains shown)
VH: EVQLVESGGGLVQPGGSLRLSCAASGFTFSDYSISWVRQAPGKGLEWVGEINPAGGATYYADSVKGRFTISADTSKNTAYLQMNSLRAEDTAVYYCARGDFPFWSDAYYVMDYWGQGTLVTVSS
VL: B1 VL with A91S, S93T, A94T
notes: also called Ab 3-2

This note sets out measurements from patent publication US20180371107A1 (published 2018).

By IC50 is commonly meant the concentration needed to halve the response being measured. A higher IC50 goes with a need for much substance. Broadly, the Kd is the constant that tells how readily two partners part at equilibrium. Low readings indicate a tighter complex, high ones a looser complex.

Substitutions are numbered along the chain they refer to. Some results are limits rather than exact numbers.

The first test deals with T1, mouse NSP4 (mNSP4), form not stated in …. As to the kind of experiment: ratio of phage IC50 against the parental clone 35.WT.
Settings: not given
For the molecule B1, the “Affinity improvement to mNSP4” value came to 2 fold.
The same measure, in the same setting: the value for B2 was 2.7 fold.
B3: the “Affinity improvement to mNSP4” value is 0.6 fold.
The same measure, in the same setting: to B4 belongs 1.7 fold.

Another test shares this target. The test can be described thus: ratio of phage IC50 against the parental clone 51.WT.
Settings: not given
Consider B5, for which the “Affinity improvement to mNSP4” value turned out to be 63 fold.
B6: the “Affinity improvement to mNSP4” value turned out to be 505 fold.
The same measure, in the same setting: to B7 belongs 178 fold.

For the next test, the target named is T2, human NSP4 (hNSP4), form not stated in …. As to the kind of experiment: phage competition binding assay (phage IC50), soluble hNSP4 competitor.
Settings: not given
Consider B2, for which the IC50 was 23.4 nM.
Same read-out and setting: the value for B3 was 25.7 nM; that for B4 was 22.8 nM.
On the same count and under the same terms, the value for B8 was 32.8 nM.

Another test deals with T1, mouse NSP4 (mNSP4), form not stated in …. As to the kind of experiment: phage competition binding assay (phage IC50), soluble mNSP4 competitor.
Settings: not given
For the molecule B1, the IC50 was determined as 0.064 nM.
The same measure, in the same setting: the value for B2 was 0.048 nM; that for B5 was 0.296 nM.
B6 returned a half-maximal inhibitory concentration (IC50) of 0.037 nM.
Same read-out and setting: to B3 belongs 0.206 nM.
Same read-out and setting: the value for B4 was 0.075 nM.
Same read-out and setting: the value for B7 was 0.105 nM; that for B9 was 18.7 nM; that for B8 was 0.131 nM.

In the next test the target is T3, mouse zymogen NSP4 (mZ-NSP4) (mouse), …. The test can be described thus: BLI; no affinity. Conditions: chains VH:VL; remark: other sources report otherwise. For orientation: BLI is a label-free optical method that tracks binding on a fibre tip over time.
Take B10: the Kd is above 1000 nM.
On the same count and under the same terms, to B11 belongs above 1000 nM.
On the same count and under the same terms, the value for B9 was above 1000 nM.

Another test deals with T4, mouse active NSP4 (mA-NSP4). The test can be described thus: competition phage ELISA (phage IC50): phage clone preincubated with soluble mA-NSP4, then on NSP4-coated wells.
Settings: not given
(An ELISA detects its analyte on a solid surface through an enzyme-linked reagent.)
On to B10, for which the IC50 is 60.5 nM.
For the molecule B11, the IC50 was determined as 319 nM.
Still for that read-out and setting: the value for B12 was 25 nM; that for B9 was 9.93 nM.

For another test, the target named is T5, mouse zymogen NSP4 (mZ-NSP4). As to the kind of experiment: competition phage ELISA (phage IC50): phage clone preincubated with soluble mZ-NSP4, then on NSP4-coated wells.
Settings: not given
Molecule B13 came in with an IC50 of 0.15 nM.
Still for that read-out and setting: the value for B8 was 0.18 nM.
